# Measurements taken from US7141434B2, “Methods of identifying compounds that modulate IL-4 receptor-mediated IgE synthesis utilizing an adenosine kinase” (Rigel Pharmaceuticals, Inc., priority 2002, dated 2006).
# Columns and labels:
# [1] = target: T1, human AK (hAK) (Homo sapiens, UniProt P55263); assay: β-galactosidase yeast two hybrid (YTH) interaction assay; format: binding; conditions: qualitative
# T1 construct: expressed in transfected cells; prey cDNA from the A5T4 reporter cell line (derived from BJAB B-cells)
# Protocol: Potential binding partners for peptide AR02E8 wt were identified in a β-galactosidase yeast two-hybrid (YTH) assay using peptide AR02E8 wt as bait and a cDNA library constructed from the A5T4 reporter cell line as prey. Binding was assessed by β-galactosidase quantification using BetaFluor (Novagen) as a substrate. A negative interaction control (no cDNA fused downstream of the GAL4 activation domain sequence) was also run. A general outline of the YTH assay is illustrated in FIG. 5A. Following clustering, filtering to remove non-specific bait hits (e.g., GFP and BFP), singletons and clusters recognized by 10 or more cDNA baits (based upon historical YTH assays), and prioritization, 45 prey clones were identified as hits.
# Potential targets identified in the YTH assay were reconfirmed as generally outlined in FIG. 6. The cDNA clones identified as hits in the YTH assay were purified and rescreened for interaction with the AR02E8 wt peptide in a YTH assay. The hit clones were also screened in a control assay for interaction with the BFP using a vector (pGBKT7) that contained only the BFP and not the AR02E8 peptide. At this stage, 27 putative target clones remained.
# The interaction of AR02E8 wt peptide and its mutants with the clones identified as potential targets for the peptide AR02E8 wt was then quantified in a β-galactosidase YTH assay. The YTH assay was performed in the manner described above. A general outline of this YTH assay is illustrated in FIG. 5B. For each clone tested, an interaction profile was developed by comparing the β-galactosidase activity of each mutant to that of the wild type peptide as described above.
# The interaction of these IOF, ROF and LOF mutants with different polypeptides encoded by the putative target clones were quantified using the YTH assay described above. […]
# [2] = tested on: ST486 endogenous α promoter; assay: TAQMAN assay of endogenous germline α promoter transcription in ST486 cells; format: cell-based; conditions: ST486 cells stimulated with TGF-β 40 ng/ml; average of 3 values; p=0.1120
# Protocol: The assay was similar to that described in the immediately preceding section, except that ST486 cells (ATCC # CRL-1647) engineered to express the tetracycline-regulated transactivator were infected and the infected cells were stimulated with TGF-β (40 ng/ml; Peprotech). The primers and probe, which are specific for the transcription product driven by the ST486 endogenous α promoter, were as follows (the probe was labeled at the 5′-end with Fam and at the 3′-end with Tamra): […]
# [3] = tested on: IL-4 induced germline ε transcription (ε promoter reporter in A5T4 cells); assay: Re-infection of naive A5T4 reporter cells with BFP-peptide fusion (GFP reporter ratio); format: cell-based, human; conditions: based on reporter ratio; % change calculated after subtracting 1.0 from the ratios
# Protocol: The ability of peptide AR02E8 wt to inhibit germline ε transcription was confirmed in naive cells. Briefly, Phoenix cells were transfected with a retroviral vector encoding a BFP-AR02E8 wt peptide fusion as described in WO 99/58663 and WO 97/27213. Naïve A5T4 cells were infected with the resultant virions and grown for 3 days. The infected cells were stimulated with IL-4 (60 U/mL) and, after 3 days, the cells were assessed by FACS for BFP and GFP. […] The BFP fluorescence data corresponding to the BFP^+ and BFP^− populations are provided in Panel A. The GFP fluorescence data corresponding to the BFP^+ and BFP-populations are presented in Panel B. The reporter ratio for this purpose is determined as the geometric mean of the GFP fluorescence of the BFP^− population divided by the geometric mean of the GFP fluorescence of the BFP^+ population. The reporter ratio for the AR02E8 in this re-infection assay was 2.93. […]
# TABLE 2 depicts the amino acid sequences (the dual alanine/glycine mutations are underlined) of the mutants tested and the measured reporter ratios when screening in the A5T4 reporter line.
# T1 sequence (P55263 whole entry): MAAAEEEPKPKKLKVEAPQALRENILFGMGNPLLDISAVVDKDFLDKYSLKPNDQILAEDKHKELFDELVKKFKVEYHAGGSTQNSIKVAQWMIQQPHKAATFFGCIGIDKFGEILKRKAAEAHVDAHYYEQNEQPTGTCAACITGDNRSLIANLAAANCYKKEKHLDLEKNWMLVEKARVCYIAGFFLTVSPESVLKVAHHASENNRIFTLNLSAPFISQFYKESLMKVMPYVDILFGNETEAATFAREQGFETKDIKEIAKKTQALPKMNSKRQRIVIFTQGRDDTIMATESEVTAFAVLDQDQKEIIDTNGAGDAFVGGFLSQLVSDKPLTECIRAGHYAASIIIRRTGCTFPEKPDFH
Sequence,binding to human AK in yeast two hybrid interaction assay [1],endogenous α inhibition ratio [2],functional category as compared to the wild type peptide [3]
"DTMQVQCGVCAGGYVVAFWDVGP (peptide encoded by synthetic oligomer) [AR02E8RS, dual alanine/glycine mutant of AR02E8 wt]",found to bind human AK (hAK),,
"DTMQVQCGVCRSGYVVAFWDVGP (peptide encoded by synthetic oligomer) [AR02E8 wt, 23-residue peptide from a random retroviral library, expressed as BFP-peptide fusion]",found to bind human AK (hAK),0.79,
"DTMQVQCGVCRSGAGVAFWDVGP (peptide encoded by synthetic oligomer) [AR02E8YV, dual alanine/glycine mutant of AR02E8 wt, loss of function]",,,LOF (Cells expressing a loss of function (LOF) mutant have a reporter ratio of <1.11)
"DTMQVQCGAGRSGYVVAFWDVGP (peptide encoded by synthetic oligomer) [AR02E8VC, dual alanine/glycine mutant of AR02E8 wt]",found to bind human AK (hAK),,
